Test results from article PMC10758951 (2023).
No end group written: not given here.

B1: 2AcK (peptide)
chain: K(Ac)LLK(Ac)HLYH

Experiments:
2AcK [1] = biological target: B1; assay: SPR
BRD4-BD1 42-168 = BRD4-BD1 42-168 (Homo sapiens, UniProt O60885); assay: SPR
2AcK [2] = biological target: B1; assay: ITC

Binder	Kd (2AcK [1]) [nM]	Kd (BRD4-BD1 42-168) [nM]	Kd (2AcK [2]) [µM]
BRD2-BD1 65-194 (protein) not shown	2000	–	–
B1	–	1000	–
BRD3-BD1 25-147 (protein) not shown	2000	–	10
